Experiments:
[1] = target: SARS-CoV-2 Spike-Fc, Alpha (B1.1.7/United Kingdom) variant (SARS-CoV-2), P0DTC2
[2] = target: SARS-CoV-2 Spike-Fc, Beta (B1.351/South Africa) variant (SARS-CoV-2), P0DTC2
[3] = target: SARS-CoV-2 Spike-Fc, Delta (B1 617 2/India) variant (SARS-CoV-2), P0DTC2
[4] = target: SARS-CoV-2 Spike-Fc, Gamma (P1/Brazil) variant (SARS-CoV-2), P0DTC2
[5] = target: SARS-CoV-2 Spike-Fc, Epsilon (B1429) variant (SARS-CoV-2), P0DTC2
ACE2, Q9BYF1 [6] = experiment: inhibitor screening kit; ACE2:SARS-CoV-2 Spike (Example 4 assay)
ACE2, Q9BYF1 [7] = experiment: inhibitor screening kit; SARS-CoV-2 Spike:ACE2 (Example 3 assay)

ACE2, Q9BYF1, sequence (Q9BYF1 18-740 limits assumed): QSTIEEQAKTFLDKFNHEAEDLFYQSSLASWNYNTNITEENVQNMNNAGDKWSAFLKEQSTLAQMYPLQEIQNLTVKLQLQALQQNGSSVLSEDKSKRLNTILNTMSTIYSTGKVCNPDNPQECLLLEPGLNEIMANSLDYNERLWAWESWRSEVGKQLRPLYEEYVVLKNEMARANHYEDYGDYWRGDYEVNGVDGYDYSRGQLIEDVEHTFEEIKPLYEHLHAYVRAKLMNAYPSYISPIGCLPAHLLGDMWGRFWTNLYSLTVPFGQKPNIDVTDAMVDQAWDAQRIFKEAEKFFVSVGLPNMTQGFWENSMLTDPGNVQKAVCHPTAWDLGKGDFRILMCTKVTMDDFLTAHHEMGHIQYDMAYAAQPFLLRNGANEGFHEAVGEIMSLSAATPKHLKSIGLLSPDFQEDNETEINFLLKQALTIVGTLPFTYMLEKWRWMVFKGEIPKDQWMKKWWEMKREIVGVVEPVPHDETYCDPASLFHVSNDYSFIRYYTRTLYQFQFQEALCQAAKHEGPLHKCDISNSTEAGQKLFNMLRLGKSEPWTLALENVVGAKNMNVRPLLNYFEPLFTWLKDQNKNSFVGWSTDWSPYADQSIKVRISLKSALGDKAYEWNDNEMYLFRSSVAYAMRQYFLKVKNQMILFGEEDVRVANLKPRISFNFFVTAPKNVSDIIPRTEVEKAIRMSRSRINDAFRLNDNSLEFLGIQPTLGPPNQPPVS

| Binder | IC50 [1] [nM] | IC50 [2] [nM] | IC50 [3] [nM] | IC50 [4] [nM] | IC50 [5] [nM] | IC50 (ACE2, Q9BYF1 [6]) [µM] | IC50 (ACE2, Q9BYF1 [7]) [µM] |
| --- | --- | --- | --- | --- | --- | --- | --- |
| KTFLDKFNHEAEDLFPGPKWSAFLKEQSTLAQMYG (modifications not checked) [Seq28 (LNCOV-20)] | 24.6 | 31.5 | 29.2 | 41.7 | 28.8 |  |  |
| EQAKTFLDKFNHEAEDLFLWRALWRLWRSLWRLLWK (modifications not checked) [Seq33 (LNCOV-18)] | 17.8 | 28.8 | 25.7 | 20.2 | 31.4 |  |  |
| KVGGNYNYKLWRALWRLWRSLWRLLWK (modifications not checked) [Seq13 (LNCOV-11)] |  |  |  |  |  | > 10 | > 10 |
| GNYNYLYRLLWRALWRLWRSLWRLLWK (modifications not checked) [seq14 (LNCOV-12)] |  |  |  |  |  | > 10 | > 10 |
| VEGFNCYFLWRALWRLWRSLWRLLWK (modifications not checked) [Seq18 (LNCOV-16)] |  |  |  |  |  | > 10 | > 10 |

Reference: patent US20230304010A1, “COMPOSITIONS AND METHODS FOR TREATING VIRAL INFECTIONS” (priority 2020, published 2023)
